In paper PMC10702442, “Arabidopsis thaliana Phytocystatin 6 Forms Functional Oligomer and Amyloid Fibril States” (Biochemistry, 2023):
Values belong to the molecule of their own block, whether it stands above or below them.

Legend:
[1] = target: AtCYT6-CTD_(long), the C-terminal domain containing the interdomain linker at its N-terminus (Arabidopsis thaliana); test: SEC; Superdex 75, 500 uL of protein at up to 2 mg/mL, 20 mM Tris pH 7.5, 50 mM NaCl, nonreducing, room temperature
[2] = target: the molecule itself; test: SEC; Superdex 200, 500 uL of AtCYT6 at 2 mg/mL, 20 mM Tris pH 7.5, 50 mM NaCl, without or with 2 mM DTT, room temperature
[3] = target: the molecule itself; test: cross-linking; 0.175% (w/v) glutaraldehyde, protein at 0.3 mg/mL in 20 mM citric acid pH 5.5, 100 mM NaCl, room temperature, 1, 5 and 10 min, read by SDS-PAGE
[4] = target: the molecule itself; test: SEC; Superdex 75, 500 uL of protein at up to 2 mg/mL, 20 mM Tris pH 7.5, 50 mM NaCl, nonreducing, room temperature
[5] = target: T1, Papain from Carica papaya (Carica papaya, UniProt P00784 134-345); test: cell-based or functional assay
T1 sequence (looked up): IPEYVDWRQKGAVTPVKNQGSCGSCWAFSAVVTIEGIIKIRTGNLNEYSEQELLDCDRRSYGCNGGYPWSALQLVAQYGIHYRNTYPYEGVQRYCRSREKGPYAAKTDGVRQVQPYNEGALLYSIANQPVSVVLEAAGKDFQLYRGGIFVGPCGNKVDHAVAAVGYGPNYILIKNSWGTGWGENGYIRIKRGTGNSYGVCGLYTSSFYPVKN

B1: Arabidopsis thaliana phytocystatin 6 (AtCYT6), full-length AtCYT6 lacking the N-terminal signal peptide (natural protein, UniProt Q8H0X6 35-234, looked up)
chain: ALVGGVGDVPANQNSGEVESLARFAVDEHNKKENALLEFARVVKAKEQVVAGTLHHLTLEILEAGQKKLYEAKVWVKPWLNFKELQEFKPASDAPAITSSDLGCKQGEHESGWREVPGDDPEVKHVAEQAVKTIQQRSNSLFPYELLEVVHAKAEVTGEAAKYNMLLKLKRGEKEEKFKVEVHKNHEGALHLNHAEQHHD
notes: Cystatin 6 (phytocystatin 6) of Arabidopsis thaliana without the N-terminal signal peptide (M1-M34); both cystatin domains and the interdomain linker with Cys138; pET-15b vector; In the functional rows on fibrils this protein stood as washed amyloid fibrils (heated at 80 °C, pH 3.0); also called cystatin 6 from A. thaliana; source: E. coli BL21 (DE3), purified (Ni2+ IMAC, gel filtration)
- binding result [2]: binds

B2: AtCYT6, alkylated before cross-linking (natural protein, Arabidopsis thaliana, UniProt Q8H0X6 35-234, looked up)
chain: ALVGGVGDVPANQNSGEVESLARFAVDEHNKKENALLEFARVVKAKEQVVAGTLHHLTLEILEAGQKKLYEAKVWVKPWLNFKELQEFKPASDAPAITSSDLGCKQGEHESGWREVPGDDPEVKHVAEQAVKTIQQRSNSLFPYELLEVVHAKAEVTGEAAKYNMLLKLKRGEKEEKFKVEVHKNHEGALHLNHAEQHHD
modifications: alkylated to prevent disulfide-mediated dimerization via Cys138
notes: As m1: cystatin 6 of Arabidopsis thaliana without the N-terminal signal peptide (M1-M34); Ala35 to Asp234 according to Uniprot ID Q8H0X6; source: E. coli BL21 (DE3), purified (Ni2+ IMAC, gel filtration), then alkylated
- stoichiometry N [3]: 2

The next lines start with results.

- stoichiometry N [1]: 2
Molecule: AtCYT6-CTD_(long), the C-terminal domain containing the interdomain linker at its N-terminus (domain or fragment)

- IC50 of papain inhibition in a fluorescence substrate assay: dimer peak fraction of AtCYT6-NTD against the monomer peak fraction [5]: 10 fold
B3: AtCYT6-NTD, the isolated N-terminal cystatin domain of AtCYT6 (domain or fragment, Arabidopsis thaliana, UniProt Q8H0X6 35-127, looked up)
chain: ALVGGVGDVPANQNSGEVESLARFAVDEHNKKENALLEFARVVKAKEQVVAGTLHHLTLEILEAGQKKLYEAKVWVKPWLNFKELQEFKPASD
notes: N-terminal cystatin domain of cystatin 6 of Arabidopsis thaliana; no cysteine; The limits Ala35–Asp127 are printed for the AlphaFold model named AtCYT6-NTD, on Uniprot ID Q8H0X6; pET-28a vector; also called N-terminal domain; source: E. coli BL21 (DE3), purified (Ni2+ IMAC, gel filtration)
- stoichiometry N [4]: 2
